The text below walks through data of paper PMC9352969 (The Journal of Biological Chemistry, 2022).

The target in experiment [1] is T1, FtsL, full-length (Escherichia coli divisome transmembrane protein) (Escherichia coli, UniProt P0AEN4 1-121).
T1 sequence (looked up): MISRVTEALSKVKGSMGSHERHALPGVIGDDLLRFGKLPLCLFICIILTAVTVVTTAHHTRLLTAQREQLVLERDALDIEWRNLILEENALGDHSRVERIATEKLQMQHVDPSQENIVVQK
The experiment is described as follows: pull-down.

In experiment [2] the target is FtsQ, full-length (Escherichia coli divisome transmembrane protein) (Escherichia coli, UniProt P06136 1-276). The experiment is described as follows: pull-down.
Sequence of FtsQ, full-length (Escherichia coli divisome transmembrane protein) (P06136 whole entry): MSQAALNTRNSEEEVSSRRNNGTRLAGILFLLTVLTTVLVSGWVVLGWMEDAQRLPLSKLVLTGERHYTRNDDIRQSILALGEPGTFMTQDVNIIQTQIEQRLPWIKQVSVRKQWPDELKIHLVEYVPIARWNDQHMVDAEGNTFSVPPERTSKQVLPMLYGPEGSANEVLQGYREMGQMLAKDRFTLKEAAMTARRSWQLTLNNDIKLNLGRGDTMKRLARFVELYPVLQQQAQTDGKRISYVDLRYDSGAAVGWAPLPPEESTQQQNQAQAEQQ

B1: FtsB, full-length, His-tagged (Escherichia coli divisome transmembrane protein) (natural protein, UniProt P0A6S5 1-103, looked up)
chain: MGKLTLLLLAILVWLQYSLWFGKNGIHDYTRVNDDVAAQQATNAKLKARNDQLFAEIDDLNGGQEALEERARNELSMTRPGETFYRLVPDASKRAQSAGQNNR
With B1, the binding result in experiment [1] and in experiment [2] was “binds” throughout.
